Data from US20200223915A1 (OSAKA UNIVERSITY, published 2020).

How the values were obtained:
Experiment in all cases: FACS on Claudin-expressing cells
[1] = molecular target: T1, wild-type human Claudin 6 protein (human, UniProt P56747 1-220)
T1 construct: Expressed on cells by retrovirus; Wording leaves open whether the entry is the protein or the DNA; also called hCLDN6
T1 sequence: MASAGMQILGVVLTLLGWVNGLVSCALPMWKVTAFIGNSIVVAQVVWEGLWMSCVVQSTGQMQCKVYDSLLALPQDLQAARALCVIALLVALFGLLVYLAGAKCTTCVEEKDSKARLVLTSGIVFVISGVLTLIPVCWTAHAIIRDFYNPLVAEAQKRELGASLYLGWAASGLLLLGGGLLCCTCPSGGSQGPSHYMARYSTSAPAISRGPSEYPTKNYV
Procedure: (§1) The cells were washed three times with 0.2% BSA-TBS, and then mixed with 100 μL of a secondary antibody solution (FITC conjugated goat anti-mouse IgG+IgM in 1% BSA-PBS (1:400)), followed by a reaction at 4° C. for 1 hour. The cells were washed with 0.2% BSA-TBS, and FACS analysis (FACS caliber, BD Bioscience) was performed.

[2] = molecular target: T2, wild-type mouse Claudin 2 protein (mouse, UniProt O88552 1-230)
T2 construct: Expressed on cells by retrovirus; Wording leaves open whether the entry is the protein or the DNA; also called mCLDN2
T2 sequence: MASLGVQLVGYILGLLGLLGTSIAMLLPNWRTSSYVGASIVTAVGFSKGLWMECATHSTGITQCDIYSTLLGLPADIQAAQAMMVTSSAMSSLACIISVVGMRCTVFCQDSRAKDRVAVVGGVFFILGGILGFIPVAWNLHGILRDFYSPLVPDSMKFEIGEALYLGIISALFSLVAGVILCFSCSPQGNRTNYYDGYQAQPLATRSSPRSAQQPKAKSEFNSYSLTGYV
Procedure: as §1

[3] = molecular target: T3, wild-type human Claudin 7 protein (human, UniProt O95471 1-211)
T3 construct: Expressed on cells by retrovirus; Wording leaves open whether the entry is the protein or the DNA; also called hCLDN7
T3 sequence: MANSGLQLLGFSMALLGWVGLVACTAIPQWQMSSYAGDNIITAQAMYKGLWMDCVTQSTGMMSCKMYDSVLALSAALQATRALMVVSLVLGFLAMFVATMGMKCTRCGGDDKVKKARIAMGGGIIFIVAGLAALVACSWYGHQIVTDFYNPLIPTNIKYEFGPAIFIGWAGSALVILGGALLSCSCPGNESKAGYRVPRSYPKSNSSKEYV
Procedure: as §1

[4] = molecular target: T4, wild-type mouse Claudin 3 protein (mouse, UniProt Q9Z0G9 1-219)
T4 construct: Expressed on cells by retrovirus; Wording leaves open whether the entry is the protein or the DNA; also called mCLDN3
T4 sequence: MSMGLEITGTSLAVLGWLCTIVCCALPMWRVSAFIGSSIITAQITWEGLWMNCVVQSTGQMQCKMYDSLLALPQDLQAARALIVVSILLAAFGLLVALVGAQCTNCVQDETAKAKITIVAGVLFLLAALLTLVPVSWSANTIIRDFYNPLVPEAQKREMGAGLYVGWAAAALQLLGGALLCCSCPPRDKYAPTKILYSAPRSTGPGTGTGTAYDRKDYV
Procedure: as §1

[5] = molecular target: T5, wild-type human Claudin 9 protein (human, UniProt O95484 1-217)
T5 construct: Expressed on cells by retrovirus; Wording leaves open whether the entry is the protein or the DNA; also called hCLDN9
T5 sequence: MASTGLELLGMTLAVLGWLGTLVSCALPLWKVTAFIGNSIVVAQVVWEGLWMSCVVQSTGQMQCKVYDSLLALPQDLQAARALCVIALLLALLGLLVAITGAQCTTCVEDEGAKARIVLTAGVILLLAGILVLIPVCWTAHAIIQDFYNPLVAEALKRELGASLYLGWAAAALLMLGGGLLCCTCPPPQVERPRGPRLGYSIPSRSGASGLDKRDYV
Procedure: as §1

[6] = molecular target: T6, wild-type human Claudin 2 protein (human, UniProt P57739 1-230)
T6 construct: Expressed on cells by retrovirus; Wording leaves open whether the entry is the protein or the DNA; also called hCLDN2
T6 sequence: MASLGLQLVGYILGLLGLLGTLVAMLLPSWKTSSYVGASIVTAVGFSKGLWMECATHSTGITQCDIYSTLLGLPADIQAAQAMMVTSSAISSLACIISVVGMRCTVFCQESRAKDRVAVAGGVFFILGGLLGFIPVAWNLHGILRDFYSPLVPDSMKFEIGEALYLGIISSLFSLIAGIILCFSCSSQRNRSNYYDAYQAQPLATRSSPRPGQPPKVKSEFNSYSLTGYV
Procedure: as §1

[7] = molecular target: T7, wild-type human Claudin 4 protein (human, UniProt O14493 1-209)
T7 construct: Expressed on cells by retrovirus; Wording leaves open whether the entry is the protein or the DNA; also called hCLDN4
T7 sequence: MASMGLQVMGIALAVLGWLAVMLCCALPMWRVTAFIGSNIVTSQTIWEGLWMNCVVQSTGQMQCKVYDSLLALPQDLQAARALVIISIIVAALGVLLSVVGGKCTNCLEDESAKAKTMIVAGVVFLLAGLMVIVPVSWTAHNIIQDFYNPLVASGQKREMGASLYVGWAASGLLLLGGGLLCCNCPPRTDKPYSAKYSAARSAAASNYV
Procedure: as §1

[8] = molecular target: T8, wild-type human Claudin 1 protein (human, UniProt O95832 1-211)
T8 construct: Expressed on cells by retrovirus; also called hCLDN1
T8 sequence: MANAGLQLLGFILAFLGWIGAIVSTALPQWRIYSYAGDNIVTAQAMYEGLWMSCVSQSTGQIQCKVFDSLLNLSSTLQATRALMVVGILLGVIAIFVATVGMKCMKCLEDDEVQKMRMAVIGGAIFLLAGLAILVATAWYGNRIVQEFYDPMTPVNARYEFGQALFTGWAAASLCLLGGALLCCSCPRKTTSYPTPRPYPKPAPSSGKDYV
Procedure: as §1

[9] = molecular target: T9, wild-type mouse Claudin 5 protein (mouse, UniProt O54942 1-218)
T9 construct: also called mCLDN5
T9 sequence: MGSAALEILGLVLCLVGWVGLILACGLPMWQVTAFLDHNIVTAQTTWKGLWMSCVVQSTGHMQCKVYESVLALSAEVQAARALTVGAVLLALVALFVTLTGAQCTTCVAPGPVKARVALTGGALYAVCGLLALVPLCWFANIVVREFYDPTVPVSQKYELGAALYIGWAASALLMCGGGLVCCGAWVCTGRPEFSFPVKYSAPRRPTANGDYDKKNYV
Procedure: as §1

Measured: binding result

B1: antibody 2B1 (antibody, IgG2a, V domains shown)
VH: QVQLQQPGAELVKPGASVKLSCKASGYTFTTFWIHWVKQRPGRGLEWIGRIAPYSGGTTYNEKFKSKATLTVDRPSTTAYMQLISLTSEDSAVYYCARWDFTYGSNLDYWGQGTTLTVSS
VL: DIVMTQSQKFMSTSVGDRVSIPCKASQNVRTAVAWYQQKPGQSPKALIYLASNRHTGVPDRFTGSGSGTDFTLTISNVQSEDLADYFCLGHWDYPYTFGGGTKLEIKR
notes: also called antibody B
no binding (tested: 10 µg/mL): all assays above

B2: antibody 2B12 (antibody, IgG2a, V domains shown)
VH: QVQLQQSGAELARPGASVKLSCKASGYTFTRFGMSWVKQRTGQGLEWIGEIYPGSGDTYYSENFKGKATLTADKSSGTAYMELRSLTSEDSAVYFCARWGIYYGNPYAMDYWGQGTSVTVSS
VL: DIVMTQAAPSVPVTPGESVSISCRSSKSLLHSNGNTYLYWFLQRPGQSPQLLIYRMSNLASGVPDRFSGSGSGTAFTLRISRVEAEDVGVYYCLQHLEYPFTFGSGTKLEIKR
notes: also called antibody A
no binding (tested: 10 µg/mL): all assays above
